{
  "source": "paper PMC5521794",
  "about": "“Understanding Russell’s viper venom factor V activator’s substrate specificity by surface plasmon resonance and in-silico studies” (PLoS ONE, 2017)",
  "target": "Russell's viper venom factor V activator (Russell's viper, Natural, unmodified enzyme purified from Indian Russell's viper venom. The isoform (alpha or gamma) is not stated; gamma is assumed because the paper models RVV-V with PDB 3S9C. The candidate entry is)",
  "test": "SPR; Biacore T200; RVV-V immobilised on a CM5 chip by amine coupling (3000 RU); peptides flowed over at 62.5 uM to 1 mM in PBS, 30 ul/min; association 120 s, dissociation 300 s; regeneration 10 mM glycine pH 2.5; two-state binding model",
  "details": "both partners purified",
  "data": [
    {"binder": "KHTHHAPLSPRTFHP (also called site II peptide; source: synthetic peptide; bought: Genei)", "note": "[Peptide II (factor V cleavage site II, Lys1008-Pro1022)]", "values": [
      {"measurement": "Kd", "value": 2780, "unit": "µM"}
    ]}
  ]
}
